Our source for the abundance fitness values is the Human Domainome abundance scans (Beltran et al. 2025).

To fix the notation:
B1: Far upstream element-binding protein 1, residues 98 to 169; numbered along this chain, Q96AE4 (parent)
chain: RSVMTEEYKVPDGMVGFIIGRGGEQISRIQQESGCKIQIAPDSGGLPERSCMLTGTPESVQSAKRLLDQIVE

± gives the uncertainty stated by the source.

This series covers variants of B1. In words: abundance fitness (aPCA) (normalised: wild type 0, dead -1); higher = more abundant; growth selection in yeast, the domain comes from the species named. Conditions: Homo sapiens.
With RSVMTEEYKVPDGMVGFIIGRGGGQISRIQQESGCKIQIAPDSGGLPERSCMLTGTPESVQSAKRLLDQIVE [E24G], the abundance fitness is -0.057 ± 0.025.

In the case of RSVMTEEYKVPDGMVGFIIGRGGIQISRIQQESGCKIQIAPDSGGLPERSCMLTGTPESVQSAKRLLDQIVE [E24I], the abundance fitness is -0.035 ± 0.049.

Regarding RSVMTEEYKVPDGMVGFIIGRGGWQISRIQQESGCKIQIAPDSGGLPERSCMLTGTPESVQSAKRLLDQIVE [E24W], the abundance fitness came to 0.171 ± 0.032.

Turning to RSVMTEEYKVPDGMVGFIIGRGGKQISRIQQESGCKIQIAPDSGGLPERSCMLTGTPESVQSAKRLLDQIVE [E24K], the abundance fitness was -0.035 ± 0.041.

Turning to RSVMTEEYKVPDGMVGFIIGRGGCQISRIQQESGCKIQIAPDSGGLPERSCMLTGTPESVQSAKRLLDQIVE [E24C], the abundance fitness was -0.082 ± 0.042.

In the case of RSVMTEEYKVPDGMVGFIIGRCGEQISRIQQESGCKIQIAPDSGGLPERSCMLTGTPESVQSAKRLLDQIVE [G22C], the abundance fitness is -0.103 ± 0.04.

In the case of RSVMTEEYKVPDGMVGFIIGRSGEQISRIQQESGCKIQIAPDSGGLPERSCMLTGTPESVQSAKRLLDQIVE [G22S], the abundance fitness was -0.1 ± 0.028.

Turning to RSVMTEEYKVPDGMVGFIIGRDGEQISRIQQESGCKIQIAPDSGGLPERSCMLTGTPESVQSAKRLLDQIVE [G22D], the abundance fitness came out at 0.005 ± 0.045.

As to RSVMTEEYKVPDGMVGFIIGRYGEQISRIQQESGCKIQIAPDSGGLPERSCMLTGTPESVQSAKRLLDQIVE [G22Y], the abundance fitness is -0.137 ± 0.045.

RSVMTEEYKVPDGMVGFIIGRIGEQISRIQQESGCKIQIAPDSGGLPERSCMLTGTPESVQSAKRLLDQIVE [G22I]: the abundance fitness was -0.09 ± 0.048.

As to RSVMTEEYKVPDGMVGFIIGRPGEQISRIQQESGCKIQIAPDSGGLPERSCMLTGTPESVQSAKRLLDQIVE [G22P], the abundance fitness is -0.151 ± 0.035.

For the variant RSVMTEEYKVPDGMVGFIIGRHGEQISRIQQESGCKIQIAPDSGGLPERSCMLTGTPESVQSAKRLLDQIVE [G22H], the abundance fitness is -0.021 ± 0.052.

In the case of RSVMTEEYKVPDGMVGFIIGRWGEQISRIQQESGCKIQIAPDSGGLPERSCMLTGTPESVQSAKRLLDQIVE [G22W], the abundance fitness is -0.15 ± 0.032.

In the case of RSVMTEEYKVPDGMVGFIIGRMGEQISRIQQESGCKIQIAPDSGGLPERSCMLTGTPESVQSAKRLLDQIVE [G22M], the abundance fitness is -0.129 ± 0.039.

For RSVMTEEYKVPDGMVGFIIGRFGEQISRIQQESGCKIQIAPDSGGLPERSCMLTGTPESVQSAKRLLDQIVE [G22F], the abundance fitness was -0.105 ± 0.041.

Regarding RSVMTEEYKVPDGMVGFIIGRNGEQISRIQQESGCKIQIAPDSGGLPERSCMLTGTPESVQSAKRLLDQIVE [G22N], the abundance fitness stood at 0.048 ± 0.047.

Consider RSVMTEEYKVPDGMVGFIIGRKGEQISRIQQESGCKIQIAPDSGGLPERSCMLTGTPESVQSAKRLLDQIVE [G22K], for which the abundance fitness was -0.001 ± 0.037.

With RSVMTEEYKVPDGMVGFIIGRLGEQISRIQQESGCKIQIAPDSGGLPERSCMLTGTPESVQSAKRLLDQIVE [G22L], the abundance fitness is -0.099 ± 0.028.

As to RSVMTEEYKVPDGMVGFIIGRQGEQISRIQQESGCKIQIAPDSGGLPERSCMLTGTPESVQSAKRLLDQIVE [G22Q], the abundance fitness was -0.014 ± 0.036.

With RSVMTEEYKVPDGMVGFIIGREGEQISRIQQESGCKIQIAPDSGGLPERSCMLTGTPESVQSAKRLLDQIVE [G22E], the abundance fitness is -0.006 ± 0.032.

Take RSVMTEEYKVPDGMVGFIIGRGAEQISRIQQESGCKIQIAPDSGGLPERSCMLTGTPESVQSAKRLLDQIVE [G23A]: the abundance fitness was -0.045 ± 0.029.

On to RSVMTEEYKVPDGMVGFIIGRGYEQISRIQQESGCKIQIAPDSGGLPERSCMLTGTPESVQSAKRLLDQIVE [G23Y], for which the abundance fitness was -0.072 ± 0.052.

Consider RSVMTEEYKVPDGMVGFIIGRGPEQISRIQQESGCKIQIAPDSGGLPERSCMLTGTPESVQSAKRLLDQIVE [G23P], for which the abundance fitness is -0.181 ± 0.033.

For RSVMTEEYKVPDGMVGFIIGRGFEQISRIQQESGCKIQIAPDSGGLPERSCMLTGTPESVQSAKRLLDQIVE [G23F], the abundance fitness is -0.179 ± 0.052.

As to RSVMTEEYKVPDGMVGFIIGRGTEQISRIQQESGCKIQIAPDSGGLPERSCMLTGTPESVQSAKRLLDQIVE [G23T], the abundance fitness was -0.127 ± 0.038.

Consider RSVMTEEYKVPDGMVGFIIGRGVEQISRIQQESGCKIQIAPDSGGLPERSCMLTGTPESVQSAKRLLDQIVE [G23V], for which the abundance fitness was -0.157 ± 0.029.

RSVMTEEYKVPDGMVGFIIGRGEEQISRIQQESGCKIQIAPDSGGLPERSCMLTGTPESVQSAKRLLDQIVE [G23E]: the abundance fitness is -0.011 ± 0.033.

In the case of RSVMTEEYKVPDGMVGFIIGRGLEQISRIQQESGCKIQIAPDSGGLPERSCMLTGTPESVQSAKRLLDQIVE [G23L], the abundance fitness is -0.174 ± 0.03.

RSVMTEEYKVPDGMVGFIIGRGWEQISRIQQESGCKIQIAPDSGGLPERSCMLTGTPESVQSAKRLLDQIVE [G23W]: the abundance fitness is -0.101 ± 0.031.

RSVMTEEYKVPDGMVGFIIGRGNEQISRIQQESGCKIQIAPDSGGLPERSCMLTGTPESVQSAKRLLDQIVE [G23N]: the abundance fitness is -0.055 ± 0.059.

On to RSVMTEEYKVPDGMVGFIIGRGDEQISRIQQESGCKIQIAPDSGGLPERSCMLTGTPESVQSAKRLLDQIVE [G23D], for which the abundance fitness is -0.051 ± 0.045.

With RSVMTEEYKVPDGMVGFIIGRGQEQISRIQQESGCKIQIAPDSGGLPERSCMLTGTPESVQSAKRLLDQIVE [G23Q], the abundance fitness is -0.062 ± 0.034.

In the case of RSVMTEEYKVPDGMVGFIIGRGMEQISRIQQESGCKIQIAPDSGGLPERSCMLTGTPESVQSAKRLLDQIVE [G23M], the abundance fitness is -0.037 ± 0.04.

For the variant RSVMTEEYKVPDGMVGFIIGRGHEQISRIQQESGCKIQIAPDSGGLPERSCMLTGTPESVQSAKRLLDQIVE [G23H], the abundance fitness is -0.159 ± 0.058.

Regarding RSVMTEEYKVPDGMVGFIIGRGCEQISRIQQESGCKIQIAPDSGGLPERSCMLTGTPESVQSAKRLLDQIVE [G23C], the abundance fitness is -0.101 ± 0.035.

On to RSVMTEEYKVPDGMVGFIIGRGREQISRIQQESGCKIQIAPDSGGLPERSCMLTGTPESVQSAKRLLDQIVE [G23R], for which the abundance fitness was -0.044 ± 0.024.

As to RSVMTEEYKVPDGMVGFIIGRGSEQISRIQQESGCKIQIAPDSGGLPERSCMLTGTPESVQSAKRLLDQIVE [G23S], the abundance fitness was -0.061 ± 0.029.

With RSVMTEEYKVPDGMVGFIIGRGIEQISRIQQESGCKIQIAPDSGGLPERSCMLTGTPESVQSAKRLLDQIVE [G23I], the abundance fitness is -0.17 ± 0.054.
